Measurements: publication PMC9458431, “2′-O-Methylation of the second transcribed nucleotide within the mRNA 5′ cap impacts the protein production level in a cell-specific manner and contributes to RNA immune evasion”

Columns and labels:
Details in all cases: protein: recombinant
eIF4E (murine) [1] = molecular target: T1, eIF4E (murine) (Mus musculus, UniProt P63073 28-217); test: MST competition; vs m7Gp5OC3(5)FAM; as cap0(A); MST: 50 mM HEPES-KOH pH 7.2, 100 mM KCl, 0.5 mM EDTA, 0.05% Tween-20, 25 C, 50 nM eIF4E, 10 nM probe; pull-down: 20 mM Tris-HCl pH 7.4, 150 mM NaCl, 2 mM MgCl2, 2 mM DTT, 0.2% IGEPAL, 4 C
eIF4E (murine) [2] = molecular target: T1, eIF4E (murine); test: MST competition; vs m7Gp5OC3(5)FAM; not destabilized by m6A; MST: 50 mM HEPES-KOH pH 7.2, 100 mM KCl, 0.5 mM EDTA, 0.05% Tween-20, 25 C, 50 nM eIF4E, 10 nM probe; pull-down: 20 mM Tris-HCl pH 7.4, 150 mM NaCl, 2 mM MgCl2, 2 mM DTT, 0.2% IGEPAL, 4 C
eIF4E (murine) [3] = molecular target: T1, eIF4E (murine); test: MST competition; vs 10 nM m7Gp5OC3(5)FAM; KD,app only in figure; MST: 50 mM HEPES-KOH pH 7.2, 100 mM KCl, 0.5 mM EDTA, 0.05% Tween-20, 25 C, 50 nM eIF4E, 10 nM probe; pull-down: 20 mM Tris-HCl pH 7.4, 150 mM NaCl, 2 mM MgCl2, 2 mM DTT, 0.2% IGEPAL, 4 C

T1 sequence (P63073 28-217): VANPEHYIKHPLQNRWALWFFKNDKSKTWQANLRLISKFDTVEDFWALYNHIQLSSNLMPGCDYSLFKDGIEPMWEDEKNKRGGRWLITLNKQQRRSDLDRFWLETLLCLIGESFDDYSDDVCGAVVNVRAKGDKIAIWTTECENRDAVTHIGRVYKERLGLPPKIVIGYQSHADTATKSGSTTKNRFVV

Row | Binder | binding result (eIF4E (murine) [1]) | other results
1 | AGGGGAAGCGGGCAUGCGGCCAGCCA (ssRNA, m7Gppp-ApGm (2'-O-Me at nt 2 only)) [cap2-1(A) RNA] | binds | 
2 | AGGGGAAGCGGGCAUGCGGCCAGCCA (ssRNA, m7Gppp-m6ApGm) [cap2-1(m6A) RNA] |  | binding result (eIF4E (murine) [2]): binds
3 | AGGGGAAGCGGGCAUGCGGCCAGCCA (ssRNA, m7Gppp-Am (2'-O-Me at nt 1)) [cap1(A) RNA] | binds | 
4 | AGGGGAAGCGGGCAUGCGGCCAGCCA (ssRNA, m7Gppp-AmpGm (2'-O-Me at nt 1 and 2)) [cap2(A) RNA] | binds | 
5 | AGGGGAAGCGGGCAUGCGGCCAGCCA (ssRNA, m7Gppp-A) [cap0(A) RNA] |  | binding result (eIF4E (murine) [3]): binds
